Drawing on paper PMC4409664 (Cell, 2015), this text covers Kd for one molecule.

This assay has as its target wild-type human serum retinol binding protein with an N-terminal hemagglutinin tag (RBP^HA WT) (human, UniProt P02753 19-201). Description: ELISA.

B1: STRA6 (stimulated by retinoic acid 6) membrane receptor with a myc tag (STRA6^myc) (receptor, UniProt Q9BX79 1-667, looked up)
chain: MSSQPAGNQTSPGATEDYSYGSWYIDEPQGGEELQPEGEVPSCHTSIPPGLYHACLASLSILVLLLLAMLVRRRQLWPDCVRGRPGLPSPVDFLAGDRPRAVPAAVFMVLLSSLCLLLPDEDALPFLTLASAPSQDGKTEAPRGAWKILGLFYYAALYYPLAACATAGHTAAHLLGSTLSWAHLGVQVWQRAECPQVPKIYKYYSLLASLPLLLGLGFLSLWYPVQLVRSFSRRTGAGSKGLQSSYSEEYLRNLLCRKKLGSSYHTSKHGFLSWARVCLRHCIYTPQPGFHLPLKLVLSATLTGTAIYQVALLLLVGVVPTIQKVRAGVTTDVSYLLAGFGIVLSEDKQEVVELVKHHLWALEVCYISALVLSCLLTFLVLMRSLVTHRTNLRALHRGAALDLSPLHRSPHPSRQAIFCWMSFSAYQTAFICLGLLVQQIIFFLGTTALAFLVLMPVLHGRNLLLFRSLESSWPFWLTLALAVILQNMAAHWVFLETHDGHPQLTNRRVLYAATFLLFPLNVLVGAMVATWRVLLSALYNAIHLGQMDLSLLPPRAATLDPGYYTYRNFLKIEVSQSHPAMTAFCSLLLQAQSLLPRTMAAPQDSLRPGEEDEGMQLLQTKDSMAKGARPGASRGRARWGLAYTLLHNPTLQVFRKTALLGANGAQP
For the molecule B1, the Kd – broadly, the equilibrium constant for the complex coming apart – turned out to be 59 nM.
